Reference: IntAct's records for PubMed 39938803

B1: Retinoblastoma-associated protein (Homo sapiens), P06400 (parent)
chain: MPPKTPRKTAATAAAAAAEPPAPPPPPPPEEDPEQDSGPEDLPLVRLEFEETEEPDFTALCQKLKIPDHVRERAWLTWEKVSSVDGVLGGYIQKKKELWGICIFIAAVDLDEMSFTFTELQKNIEISVHKFFNLLKEIDTSTKVDNAMSRLLKKYDVLFALFSKLERTCELIYLTQPSSSISTEINSALVLKVSWITFLLAKGEVLQMEDDLVISFQLMLCVLDYFIKLSPPMLLKEPYKTAVIPINGSPRTPRRGQNRSARIAKQLENDTRIIEVLCKEHECNIDEVKNVYFKNFIPFMNSLGLVTSNGLPEVENLSKRYEEIYLKNKDLDARLFLDHDKTLQTDSIDSFETQRTPRKSNLDEEVNVIPPHTPVRTVMNTIQQLMMILNSASDQPSENLISYFNNCTVNPKESILKRVKDIGYIFKEKFAKAVGQGCVEIGSQRYKLGVRLYYRVMESMLKSEEERLSIQNFSKLLNDNIFHMSLLACALEVVMATYSRSTSQNLDSGTDLSFPWILNVLNLKAFDFYKVIESFIKAEGNLTREMIKHLERCEHRIMESLAWLSDSPLFDLIKQSKDREGPTDHLESACPLNLPLQNNHTAADMYLSPVRSPKKKGSTTRVNSTANAETQATSAFQTQKPLKSTSLSLFYKKVYRLAYLRLNTLCERLLSEHPELEHIIWTLFQHTLQNEYELMRDRHLDQIMMCSMYGICKVKNIDLKFKIIVTAYKDLPHAVQETFKRVLIKEEEYDSIIVFYNSVFMQRLKTNILQYASTRPPTLSPIPHIPRSPYKFPSSPLRIPGGNIYISPLKSPYKISEGLPTPTKMTPRSRILVSIGESFGTSEKFQKINQMVCNSDRVLKRSAEGSNPPKPLKKLRFDIEGSDEADGSKHLPGESKFQQKLAEMTSTRTRMQKQKMNDSMDTSNKEEK

Columns and labels:
e2f1_human E2F1, Q01094 [1] = variants of: B1; conditions: with e2f1_human E2F1, Q01094
e2f1_human E2F1, Q01094, sequence (Q01094 whole entry): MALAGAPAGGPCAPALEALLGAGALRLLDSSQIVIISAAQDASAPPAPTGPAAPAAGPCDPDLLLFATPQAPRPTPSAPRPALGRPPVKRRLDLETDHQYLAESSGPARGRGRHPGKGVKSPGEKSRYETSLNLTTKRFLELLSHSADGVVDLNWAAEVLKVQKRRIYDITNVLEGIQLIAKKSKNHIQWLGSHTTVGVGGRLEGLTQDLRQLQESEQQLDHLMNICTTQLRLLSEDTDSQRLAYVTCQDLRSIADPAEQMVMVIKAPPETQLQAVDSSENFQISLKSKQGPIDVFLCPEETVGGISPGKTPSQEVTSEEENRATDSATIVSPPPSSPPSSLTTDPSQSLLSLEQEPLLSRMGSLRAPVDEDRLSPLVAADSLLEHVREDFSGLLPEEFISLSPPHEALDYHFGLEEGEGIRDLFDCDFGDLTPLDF

ve7_hpv16 E7, P03129 [2] = variants of: B1; conditions: with ve7_hpv16 E7, P03129
ve7_hpv16 E7, P03129, sequence (P03129 whole entry): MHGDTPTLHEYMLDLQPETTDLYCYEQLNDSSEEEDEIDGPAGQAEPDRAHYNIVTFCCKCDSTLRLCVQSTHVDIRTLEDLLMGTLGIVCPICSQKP

ve7_hpv16 E7, P03129 [3] = variants of: B1; conditions: with ve7_hpv16 E7, P03129; remark: listed apart in the source
e2f1_human E2F1, Q01094 [4] = variants of: B1; conditions: with e2f1_human E2F1, Q01094; remark: listed apart in the source

Variant	effect of a mutation on the interaction (e2f1_human E2F1, Q01094 [1])	effect of a mutation on the interaction (ve7_hpv16 E7, P03129 [2])	effect of a mutation on the interaction (ve7_hpv16 E7, P03129 [3])	effect of a mutation on the interaction (e2f1_human E2F1, Q01094 [4])
R611S	decreasing interaction strength	with no effect	decreasing interaction strength	–
H686Y	decreasing interaction strength	with no effect	decreasing interaction strength	–
A488V	decreasing interaction strength	decreasing interaction strength	–	–
S648T	decreasing interaction strength	decreasing interaction strength	–	–
S474N	decreasing interaction strength	decreasing interaction strength	–	–
S474I	disrupting interaction strength	decreasing interaction strength	–	–
S474R	disrupting interaction strength	with no effect	decreasing interaction strength	–
R451S	decreasing interaction strength	decreasing interaction strength	–	–
R451H	decreasing interaction strength	decreasing interaction strength	–	–
R451C	decreasing interaction strength	decreasing interaction strength	–	–
Q504E	decreasing interaction strength	with no effect	decreasing interaction strength	–
V654L	decreasing interaction strength	decreasing interaction strength	–	–
R621S	decreasing interaction strength	decreasing interaction strength	–	–
R621H	decreasing interaction strength	decreasing interaction strength	–	–
R621P	decreasing interaction strength	decreasing interaction strength	–	–
Y606C	decreasing interaction strength	decreasing interaction strength	–	–
A490T	decreasing interaction strength	decreasing interaction strength	–	disrupting interaction strength
A490S	decreasing interaction strength	decreasing interaction strength	–	–
A490V	decreasing interaction strength	decreasing interaction strength	–	–
D584Y	decreasing interaction strength	decreasing interaction strength	–	–
S671F	decreasing interaction strength	decreasing interaction strength	–	–

Variant	effect of a mutation on the interaction (e2f1_human E2F1, Q01094 [1])	effect of a mutation on the interaction (ve7_hpv16 E7, P03129 [2])	effect of a mutation on the interaction (ve7_hpv16 E7, P03129 [3])	effect of a mutation on the interaction (e2f1_human E2F1, Q01094 [4])
H585Y	decreasing interaction strength	decreasing interaction strength	–	–
T664A	decreasing interaction strength	decreasing interaction strength	–	–
K530I	disrupting interaction strength	decreasing interaction strength	–	–
E693A	decreasing interaction strength	decreasing interaction strength	–	–
T620M	decreasing interaction strength	decreasing interaction strength	–	–
R556Q	decreasing interaction strength	with no effect	decreasing interaction strength	–
H699P	decreasing interaction strength	decreasing interaction strength	–	–
L550I	decreasing interaction strength	increasing interaction strength	–	–
L572I	decreasing interaction strength	increasing interaction strength	decreasing interaction strength	–
E554K	disrupting interaction strength	decreasing interaction strength	–	–
S612P	decreasing interaction strength	decreasing interaction strength	–	–
K548N	disrupting interaction strength	decreasing interaction strength	–	–
T638S	with no effect	decreasing interaction strength	–	decreasing interaction strength
S534R	disrupting interaction strength	increasing interaction strength	decreasing interaction strength	–
Q444R	decreasing interaction strength	decreasing interaction strength	–	–
Q444L	with no effect	increasing interaction strength	–	decreasing interaction strength
H673P	decreasing interaction strength	decreasing interaction strength	–	disrupting interaction strength
H673Y	decreasing interaction strength	decreasing interaction strength	–	–
E675Q	decreasing interaction strength	decreasing interaction strength	–	–
I679F	decreasing interaction strength	decreasing interaction strength	–	–
A525G	decreasing interaction strength	decreasing interaction strength	–	–

Variant	effect of a mutation on the interaction (e2f1_human E2F1, Q01094 [1])	effect of a mutation on the interaction (ve7_hpv16 E7, P03129 [2])	effect of a mutation on the interaction (ve7_hpv16 E7, P03129 [3])	effect of a mutation on the interaction (e2f1_human E2F1, Q01094 [4])
S588F	decreasing interaction strength	with no effect	decreasing interaction strength	–
S443L	decreasing interaction strength	decreasing interaction strength	–	–
H555Y	disrupting interaction strength	decreasing interaction strength	–	–
S463L	decreasing interaction strength	decreasing interaction strength	–	–
R668H	increasing interaction strength	decreasing interaction strength	–	with no effect
R668C	increasing interaction strength	increasing interaction strength	decreasing interaction strength	decreasing interaction strength
T687I	decreasing interaction strength	decreasing interaction strength	–	–
P595L	decreasing interaction strength	decreasing interaction strength	–	–
M695I	decreasing interaction strength	decreasing interaction strength	–	disrupting interaction strength
K462E	decreasing interaction strength	decreasing interaction strength	–	–
K462T	decreasing interaction strength	decreasing interaction strength	–	–
E492Q	decreasing interaction strength	decreasing interaction strength	–	–
E539D	decreasing interaction strength	decreasing interaction strength	–	disrupting interaction strength
E440K	increasing interaction strength	with no effect	decreasing interaction strength	decreasing interaction strength
R656Q	disrupting interaction strength	decreasing interaction strength	–	–
R656W	decreasing interaction strength	decreasing interaction strength	–	–
D604G	decreasing interaction strength	decreasing interaction strength	–	–
D697E	decreasing interaction strength	decreasing interaction strength	–	disrupting interaction strength
E533K	disrupting interaction strength	decreasing interaction strength	–	–
M546I	increasing interaction strength	decreasing interaction strength	–	–
